The values below come from article PMC5076819.

In this experiment the target is T1, S. gordonii SecY2-Asp4-Asp5 complex (S. gordonii) (UniProt A8AWV0).
T1 sequence 1: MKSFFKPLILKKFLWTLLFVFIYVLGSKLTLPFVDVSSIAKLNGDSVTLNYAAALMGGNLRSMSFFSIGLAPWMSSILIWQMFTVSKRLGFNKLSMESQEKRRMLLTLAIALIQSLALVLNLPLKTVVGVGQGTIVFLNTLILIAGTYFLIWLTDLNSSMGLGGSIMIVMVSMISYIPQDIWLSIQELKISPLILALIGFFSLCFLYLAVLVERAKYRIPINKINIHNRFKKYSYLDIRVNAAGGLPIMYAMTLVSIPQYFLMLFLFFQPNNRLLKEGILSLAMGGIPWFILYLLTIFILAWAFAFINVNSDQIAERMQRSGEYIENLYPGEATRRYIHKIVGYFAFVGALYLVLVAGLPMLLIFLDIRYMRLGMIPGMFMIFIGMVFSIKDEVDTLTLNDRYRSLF
T1 sequence 2: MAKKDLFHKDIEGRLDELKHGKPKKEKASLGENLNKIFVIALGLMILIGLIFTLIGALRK
T1 sequence 3: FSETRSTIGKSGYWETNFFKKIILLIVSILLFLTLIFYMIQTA

Molecule “E. coli SecA (from UniProt P10408 1-901) (enzyme)” yielded a steady-state ATPase activity of 0.3 uM E. coli SecA on addition of 0.46 uM SecY2-Asp4-Asp5 in proteoliposomes, 25 C (SecA alone ~0.02 s^-1) of 0.072 s⁻¹.

B1: S. gordonii SecA2 with a C-terminal His6 tag (enzyme)
chain: MVKNFFHIRRLKKILAKIKSFEKEMSSLSDLDLQKKTDEFKKRLADGENLDQLLPEAYAVVREVDKRILGLFPYDVQVMGAIVLHEGNIAEMATGEGKTLTATMPLYLNALSGQGAMLVTPNSYLALRDAKEMGPVYRFLGLTIETAVRADESKPLETKEKRRIYQADIIYTTNSALGFDYLIENLAENKKNQFLREFNYVIIDEIDSILLDSAQTPLIISGAPRVQSNFYDMMNTLVQTLYEDEDYCYDDEKNEVWLTQKGIRAAESFLGLNHLFSKENQELVRHLNLALRAHMVYKKDQDYVVRQSENEAEVVLLDRATGRLMELTRLQGGQHQAIEAKEHVKLTQETRAMASITYQNLFKLFRKLSGMTGTGKVVESEFLETYSMSVVKIPTNCPVIRRDYPDQIYQTLPEKVFASLDEVKHYHAKGNPLLIFTGSVEMSEIYSSLLLREGIAHNLLNANNVAREAQMIAESGQLGAVTVATSMAGRGTDIKLGPGVADLGGLVVIGTERMENHRIDLQIRGRSGRQGDPGISKFFISLEDDLLKKWGPDWIKNFYRDYSPEDFKNNPILLKQRRFKKLVSKAQKASEGNAKLSRRLTLEYAQSMKIQRELTYAERNRLLEDTNEMEEEINRVIEYVIKQVAYEQSFENRADFYRFILHHFSNRAERIPQEFDIHSPKEVSHLLQAIAEQELLAKKSYLKSDKLYSQFQRLAILKAIDENWVEQVDYLQQLKSALSGFHTSNKKPIVEYYQEAYDGFEYMKERMKHQIVKNLLMSELALNPKGEVVMYFP
In the case of B1, the steady-state ATPase activity of 0.3 uM S. gordonii SecA2 on addition of 0.46 uM SecY2-Asp4-Asp5 in proteoliposomes, 25 C (SecA2 alone ~0.01 s^-1; 4-fold increase) amounted to 0.044 s⁻¹.
